From patent US20240325549A1 (HANGZHOU ZHONGMEIHUADONG PHARMACEUTICAL, published 2024)

Key:
[1] = target: T1, human GIP receptor (human, UniProt P48546 22-466); experiment: radioligand competition: displacement of [125I]GIP from membranes of cells over-expressing human GIPR; ratio = Ki of GIP / Ki of compound
T1 construct: whole, on cells; Functional assays: HEK293/GIPR cells and transiently transfected CHO-K1 cells; also called hGIPR
T1 sequence (looked up): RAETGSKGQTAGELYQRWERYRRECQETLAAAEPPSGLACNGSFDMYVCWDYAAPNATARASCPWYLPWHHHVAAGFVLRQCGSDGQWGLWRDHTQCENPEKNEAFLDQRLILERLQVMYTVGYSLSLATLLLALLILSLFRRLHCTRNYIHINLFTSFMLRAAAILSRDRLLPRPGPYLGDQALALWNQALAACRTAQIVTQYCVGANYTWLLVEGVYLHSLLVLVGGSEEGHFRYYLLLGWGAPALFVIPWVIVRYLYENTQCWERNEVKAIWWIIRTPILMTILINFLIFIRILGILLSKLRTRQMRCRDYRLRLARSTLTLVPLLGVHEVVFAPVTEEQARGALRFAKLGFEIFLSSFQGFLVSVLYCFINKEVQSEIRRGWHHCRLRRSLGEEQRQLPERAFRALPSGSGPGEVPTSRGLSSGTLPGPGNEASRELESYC
Procedure: 98 μL of membrane dissolved in binding buffer (50 mM HEPES pH 7.4, 5 mM MgCl₂, 1 mM CaCl₂, 0.1% BSA, 0.005% Tween-20) is transferred to a 96-well test plate (15 μg/well). The compound is serially diluted in DMSO, and then, 2 μL of the diluted compounds or 100% DMSO is added to the test plate containing the membrane solution. […] The test plate is left at room temperature for 90 minutes. […] After drying at 37° C. for 2 hours, 50 μL of scintillation fluid is added to each well. The plate is read with a MicroBeta2 scintillation counter after sealing and settling for at least 1 hour so as to determine the membrane bound radioligand level.

[2] = target: T2, human GLP-1 receptor (human, UniProt P43220 24-463); experiment: cell-based or functional assay
[3] = target: T1, human GIP receptor; experiment: cell-based or functional assay
[4] = target: T2, human GLP-1 receptor; experiment: radioligand competition: displacement of [125I]GLP-1 from membranes of cells over-expressing human GLP-1R; ratio = Ki of GLP-1 / Ki of compound
Procedure: 89 μL of membrane dissolved in binding buffer (50 mM Hepes, pH 7.4, 5 mM MgCl₂, 5 mM EDTA, 0.005% TWEEN, 0.005% HSA) is transferred to a 96-well test plate (5 μg/well). The compound is serially diluted in DMSO, and then, 1 μL of the diluted compound or 100% DMSO is added to the test plate containing the membrane solution. 10 μL of [¹²⁵I] […] The test plate is left at room temperature for 90 minutes. The membrane complexes are harvested into a GF/B plate pre-coated with 0.5% PEI by using a Cell Harvester, and washed for 3 times with 500 μL of pre-cooled elution buffer (50 mM Hepes, pH 7.4, 500 mM NaCl) at 4° C. After drying at 37° C. for 2 hours, 50 μL of scintillation fluid is added to each well. The plate is read with a MicroBeta2 scintillation counter after sealing and settling for at least 1 hour so as to determine the membrane bound radioligand level.

YXEGTXTSDYXIXLDKQAQAEFVKWLLKGGPSSGAPPPSK (Aib at 2, αMePhe at 6, Aib at 11, Aib at 13; C-terminal primary amide) [P001]
Ki ratio [1]: 8.82 ratio
EC50 value (ratio of the EC50 of the endogenous ligand GLP-1 to the EC50 of the test compound), cAMP reporter gene (luciferase) assay in HEK293/CRE/GLP-1R cells [2]: 52.1 ratio
EC50 value (ratio of the EC50 of the endogenous ligand GIP to the EC50 of the test compound), LANCE Ultra cAMP assay in HEK293/GIPR cells [3]: 7.13 ratio
Ki ratio [4]: 19.5 ratio

B1: P007 (peptide)
peptide: YXEGTXTSDYXIXLDKQAQAEFVKWLLKGGPSSGAPPPSK
modifications: Aib at 2, αMePhe at 6, Aib at 11, Aib at 13; K at position 24 conjugated at the ε-amino with ([2-(2-amino-ethoxy)-ethoxy]-acetyl)2-(γ-Glu)1-CO-(CH2)16-CO2H; C-terminal primary amide
EC50 value (ratio of the EC50 of the endogenous ligand GLP-1 to the EC50 of the test compound), cAMP reporter gene (luciferase) assay in HEK293/CRE/GLP-1R cells [2]: 5.84 ratio
EC50 value (ratio of the EC50 of the endogenous ligand GIP to the EC50 of the test compound), LANCE Ultra cAMP assay in HEK293/GIPR cells [3]: 1.15 ratio
Ki ratio [4]: 0.47 ratio

B2: P008 (peptide)
peptide: YXEGTXTSDYXIXLDKQAQAEFVKWLLKGGPSSGAPPPSK
modifications: Aib at 2, αMePhe at 6, Aib at 11, Aib at 13; K at position 28 conjugated at the ε-amino with ([2-(2-amino-ethoxy)-ethoxy]-acetyl)2-(γ-Glu)1-CO-(CH2)16-CO2H; C-terminal primary amide
Ki ratio [1]: 0.16 ratio
EC50 value (ratio of the EC50 of the endogenous ligand GLP-1 to the EC50 of the test compound), cAMP reporter gene (luciferase) assay in HEK293/CRE/GLP-1R cells [2]: 4.79 ratio
EC50 value (ratio of the EC50 of the endogenous ligand GIP to the EC50 of the test compound), LANCE Ultra cAMP assay in HEK293/GIPR cells [3]: 1.67 ratio
Ki ratio [4]: 1.09 ratio

B3: P013 (peptide)
peptide: YXEGTXTSDYXIXLDKQAQAEFVKWLLKGGPSSGAPPPSK
modifications: Aib at 2, αMePhe at 6, Aib at 11, Aib at 13; K at position 24 conjugated at the ε-amino with ([2-(2-amino-ethoxy)-ethoxy]-acetyl)2-(γ-Glu)1-CO-(CH2)18-CO2H; C-terminal primary amide
Ki ratio [1]: 0.14 ratio
EC50 value (ratio of the EC50 of the endogenous ligand GLP-1 to the EC50 of the test compound), cAMP reporter gene (luciferase) assay in HEK293/CRE/GLP-1R cells [2]: 2.41 ratio
EC50 value (ratio of the EC50 of the endogenous ligand GIP to the EC50 of the test compound), LANCE Ultra cAMP assay in HEK293/GIPR cells [3]: 0.86 ratio
Ki ratio [4]: 0.28 ratio
